Measurements as given in paper PMC12714136, “14-3-3θ phosphorylation at S232 reduces its interactome and regulates axonal trafficking” (Disease Models & Mechanisms, 2025).

Target: T1, nuclear distribution protein nude-like 1 (M17 neuroblastoma cells) (human (endogenous in SK-N-BE(2)-M17), UniProt Q9GZM8 1-345)
T1 construct: nuclear distribution protein nudE-like 1, endogenous in SK-N-BE(2)-M17 cells; also called NDEL1; source: endogenous, SK-N-BE(2)-M17 neuroblastoma cells (fixed cells)
T1 sequence (looked up): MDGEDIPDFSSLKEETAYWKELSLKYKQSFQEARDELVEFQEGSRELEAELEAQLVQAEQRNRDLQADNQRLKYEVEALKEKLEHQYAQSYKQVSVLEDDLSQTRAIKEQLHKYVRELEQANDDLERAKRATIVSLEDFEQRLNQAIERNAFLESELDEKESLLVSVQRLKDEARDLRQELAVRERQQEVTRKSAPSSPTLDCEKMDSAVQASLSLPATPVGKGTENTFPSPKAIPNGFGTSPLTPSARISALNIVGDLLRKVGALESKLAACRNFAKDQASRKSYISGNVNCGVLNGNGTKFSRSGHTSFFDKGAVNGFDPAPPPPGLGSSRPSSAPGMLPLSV
Assay: proximity ligation; fixed M17 cells stably expressing V5-tagged 14-3-3θ S232A or S232D; anti-V5 with anti-NDEL1 or anti-BCR antibody; DuoLink probes; objects per area, normalised
Details: partners not purified

B1: V5-tagged 14-3-3θ S232A (natural protein, UniProt P27348 1-245, looked up)
chain: MEKTELIQKAKLAEQAERYDDMATCMKAVTEQGAELSNEERNLLSVAYKNVVGGRRSAWRVISSIEQKTDTSDKKLQLIKDYREKVESELRSICTTVLELLDKYLIANATNPESKVFYLKMKGDYFRYLAEVACGDDRKQTIDNSQGAYQEAFDISKKEMQPTHPIRLGLALNFSVFYYEILNNPELACTLAKTAFDEAIAELDTLNEDSYKDSTLIMQLLRDNLTLWTSDAAGEECDAAEGAEN
notes: 14-3-3 protein theta with S232A; also called V5-14-3-3θ phospho-mutant S232A; source: SK-N-BE(2)-M17 cells, stably transfected (fixed cells)
fold PLA signal against S232D: ~2 fold
